Results as given in PMC9308819 (Nature Communications, 2022).

B1: Rep15, full length (natural N101D variant) [human] / Rab3A, purified, nucleotide-loaded [human] (parent complex)
chain 1: MGQKASQQLALKDSKEVPVVCEVVSEAIVHAAQKLKEYLGFEYPPSKLCPAANTLNEIFLIHFITFCQEKGVDEWLTTTKMTKHQAFLFGADWIWTFWGSDKQIKLQLAVQTLQMSSPPPVESKPCDLSNPESRVEESSWKKSRFDKLEEFCNLIGEDCLGLFIIFGMPGKPKDIRGVVLDSVKSQMVRSHLPGGKAVAQFVLETEDCVFIKELLRNCLSKKDGLREVGKVYISIL
chain 2: MASATDSRYGQKESSDQNFDYMFKILIIGNSSVGKTSFLFRYADDSFTPAFVSTVGIDFKVKTIYRNDKRIKLQIWDTAGQERYRTITTAYYRGAMGFILMYDITNEESFNAVQDWSTQIKTYSWDNAQVLLVGNKCDMEDERVVSSERGRQLADHLGFEFFEASAKDNINVKQTFERLVDVICEKMSESLDTADPAVTGAKQGPQLSDQQVPPHQDCAC

Variants of: B1
Assay: ITC
chain 1 H84A was tested, and the Kd was 450 nM.

Variants of: B1
Assay: ITC
Remark: another data set of the same source
Variant chain 1 V135A has a Kd of 510 nM.
